The record followed here is IntAct's records for PubMed 29039417.

First the molecules themselves.
B1: Protein PTHB1 (Homo sapiens), Q3SYG4 (parent)
chain: MSLFKARDWWSTILGDKEEFDQGCLCLANVDNSGNGQDKIIVGSFMGYLRIFSPHPAKTGDGAQAEDLLLEVDLRDPVLQVEVGKFVSGTEMLHLAVLHSRKLCVYSVSGTLGNVEHGNQCQMKLMYEHNLQRTACNMTYGSFGGVKGRDLICIQSMDGMLMVFEQESYAFGRFLPGFLLPGPLAYSSRTDSFLTVSSCQQVESYKYQVLAFATDADKRQETEQQKLGSGKRLVVDWTLNIGEQALDICIVSFNQSASSVFVLGERNFFCLKDNGQIRFMKKLDWSPSCFLPYCSVSEGTINTLIGNHNNMLHIYQDVTLKWATQLPHIPVAVRVGCLHDLKGVIVTLSDDGHLQCSYLGTDPSLFQAPNVQSRELNYDELDVEMKELQKIIKDVNKSQGVWPMTEREDDLNVSVVVSPNFDSVSQATDVEVGTDLVPSVTVKVTLQNRVILQKAKLSVYVQPPLELTCDQFTFEFMTPDLTRTVSFSVYLKRSYTPSELEGNAVVSYSRPTDRNPDGIPRVIQCKFRLPLKLICLPGQPSKTASHKITIDTNKSPVSLLSLFPGFASQSDDDQVNVMGFHFLGGARITVLASKTSQRYRIQSEQFEDLWLITNELILRLQEYFEKQGVKDFACSFSGSIPLQEYFELIDHHFELRINGEKLEELLSERAVQFRAIQRRLLARFKDKTPAPLQHLDTLLDGTYKQVIALADAVEENQGNLFQSFTRLKSATHLVILLIALWQKLSADQVAILEAAFLPLQEDTQELGWEETVDAAISHLLKTCLSKSSKEQALNLNSQLNIPKDTSQLKKHITLLCDRLSKGGRLCLSTDAAAPQTMVMPGGCTTIPESDLEERSVEQDSTELFTNHRHLTAETPRPEVSPLQGVSE
partner: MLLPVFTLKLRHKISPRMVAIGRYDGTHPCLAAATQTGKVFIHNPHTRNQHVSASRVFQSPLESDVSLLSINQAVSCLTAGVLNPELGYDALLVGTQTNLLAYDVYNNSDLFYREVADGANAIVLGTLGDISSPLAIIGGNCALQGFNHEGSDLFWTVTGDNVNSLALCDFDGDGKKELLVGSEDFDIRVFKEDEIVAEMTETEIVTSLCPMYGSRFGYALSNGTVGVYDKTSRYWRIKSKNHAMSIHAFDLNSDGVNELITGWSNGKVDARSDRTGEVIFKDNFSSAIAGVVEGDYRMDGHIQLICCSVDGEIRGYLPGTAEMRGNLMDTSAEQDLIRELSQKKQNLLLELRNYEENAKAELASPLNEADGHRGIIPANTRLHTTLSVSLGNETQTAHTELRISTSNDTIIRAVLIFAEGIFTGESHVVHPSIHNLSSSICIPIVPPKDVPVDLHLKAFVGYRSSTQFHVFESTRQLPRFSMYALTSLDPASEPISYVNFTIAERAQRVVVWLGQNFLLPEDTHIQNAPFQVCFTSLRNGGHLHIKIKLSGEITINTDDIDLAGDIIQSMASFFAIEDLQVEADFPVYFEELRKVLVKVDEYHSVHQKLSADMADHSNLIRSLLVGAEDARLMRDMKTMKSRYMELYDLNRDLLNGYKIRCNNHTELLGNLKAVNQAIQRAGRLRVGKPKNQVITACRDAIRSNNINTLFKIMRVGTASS

The assay covers variants of B1. To be noted: with bbs2_human BBS2, Q9BXC9.
Consider L620E, for which the “effect of a mutation on the interaction” value was “with no effect”. Consider Y599A, for which the “effect of a mutation on the interaction” value is on record as “with no effect”. Regarding Y599E, the “effect of a mutation on the interaction” value is on record as “with no effect”. With Y599K, the “effect of a mutation on the interaction” value is “with no effect”. For the variant Q597E, the “effect of a mutation on the interaction” value is “with no effect”. In the case of Q597A, the “effect of a mutation on the interaction” value is given as “with no effect”. Consider Q597K, for which the “effect of a mutation on the interaction” value is listed as “with no effect”. For the variant Q597R, the “effect of a mutation on the interaction” value is “disrupting interaction strength”. For F582A, the “effect of a mutation on the interaction” value is “with no effect”.

For F582K, the “effect of a mutation on the interaction” value is listed as “with no effect”.

As to F582E, the “effect of a mutation on the interaction” value is “with no effect”.

Take F632A: the “effect of a mutation on the interaction” value is given as “with no effect”. Regarding F632K, the “effect of a mutation on the interaction” value is “with no effect”.

Turning to F632E, the “effect of a mutation on the interaction” value is “with no effect”. Turning to E625K, the “effect of a mutation on the interaction” value is given as “with no effect”.

In the case of E625A, the “effect of a mutation on the interaction” value was “with no effect”. Take Q602K: the “effect of a mutation on the interaction” value is “with no effect”. In the case of Q602A, the “effect of a mutation on the interaction” value is “with no effect”. Consider Q602L, for which the “effect of a mutation on the interaction” value is reported as “disrupting interaction strength”.

As to Q602E, the “effect of a mutation on the interaction” value is “with no effect”. Turning to L618E, the “effect of a mutation on the interaction” value is given as “with no effect”.

Take L618A: the “effect of a mutation on the interaction” value was “with no effect”. Take L618K: the “effect of a mutation on the interaction” value is reported as “with no effect”. In the case of I601A, the “effect of a mutation on the interaction” value is given as “with no effect”. As to I601E, the “effect of a mutation on the interaction” value is reported as “with no effect”. Regarding I601K, the “effect of a mutation on the interaction” value is “with no effect”. L583A: the “effect of a mutation on the interaction” value is reported as “with no effect”. Under L583K stands “with no effect”; under L583E, “with no effect”; under V629A, “with no effect”. Turning to V629E, the “effect of a mutation on the interaction” value is on record as “with no effect”. In the case of V629K, the “effect of a mutation on the interaction” value is “with no effect”. Then K626A, with “with no effect”; and K626E, with “with no effect”.

Take I617E: the “effect of a mutation on the interaction” value is listed as “with no effect”.

On to I617A, for which the “effect of a mutation on the interaction” value was “with no effect”. I617K: the “effect of a mutation on the interaction” value was “with no effect”. For the variant L591K, the “effect of a mutation on the interaction” value is on record as “with no effect”.

As to L591A, the “effect of a mutation on the interaction” value is “with no effect”. Regarding L591E, the “effect of a mutation on the interaction” value is recorded as “with no effect”. As to S639E, the “effect of a mutation on the interaction” value was “with no effect”. On to S639A, for which the “effect of a mutation on the interaction” value is “with no effect”. Turning to S639K, the “effect of a mutation on the interaction” value is recorded as “with no effect”.

As to D608E, the “effect of a mutation on the interaction” value is listed as “with no effect”. D608K: the “effect of a mutation on the interaction” value is “with no effect”. On to D608A, for which the “effect of a mutation on the interaction” value was “with no effect”.

As to Q605A, the “effect of a mutation on the interaction” value is “with no effect”. On to Q605E, for which the “effect of a mutation on the interaction” value was “with no effect”. Consider Q605K, for which the “effect of a mutation on the interaction” value was “with no effect”. As for S596A, the “effect of a mutation on the interaction” value is reported as “with no effect”. As to S596E, the “effect of a mutation on the interaction” value is given as “with no effect”.

On to S596K, for which the “effect of a mutation on the interaction” value was “with no effect”. Take E615A: the “effect of a mutation on the interaction” value is recorded as “with no effect”. Then E615K, with “with no effect”; and L616A, with “with no effect”. On to L616E, for which the “effect of a mutation on the interaction” value is “with no effect”. Then L616K, with “with no effect”. For E607A, the “effect of a mutation on the interaction” value is reported as “with no effect”. For the variant E607K, the “effect of a mutation on the interaction” value was “with no effect”. For Q627E, the “effect of a mutation on the interaction” value is listed as “with no effect”. Take Q627A: the “effect of a mutation on the interaction” value was “with no effect”. Under Q627K stands “with no effect”. I588A: the “effect of a mutation on the interaction” value is “with no effect”. On to I588E, for which the “effect of a mutation on the interaction” value is “with no effect”. Under I588K stands “with no effect”; under F606A, “with no effect”; under F606E, “with no effect”. Then F606K, with “with no effect”; and G585A, with “with no effect”. With G585E, the “effect of a mutation on the interaction” value was “with no effect”.

Regarding G585K, the “effect of a mutation on the interaction” value is given as “with no effect”. Under G585R stands “disrupting interaction strength”; under A592E, “with no effect”; under A592K, “with no effect”. Then D631K, with “with no effect”; and D631E, with “with no effect”. For D631A, the “effect of a mutation on the interaction” value was “with no effect”. A586E: the “effect of a mutation on the interaction” value is “with no effect”. Under A586K stands “with no effect”; under S635K, “with no effect”. Turning to S635E, the “effect of a mutation on the interaction” value was “with no effect”. Then S635A, with “with no effect”; and G638K, with “with no effect”. With G638E, the “effect of a mutation on the interaction” value was “with no effect”. Turning to G638A, the “effect of a mutation on the interaction” value is “with no effect”. As to H581Y, the “effect of a mutation on the interaction” value was “disrupting interaction strength”. For the variant H581P, the “effect of a mutation on the interaction” value is “disrupting interaction strength”. Regarding H581E, the “effect of a mutation on the interaction” value is listed as “with no effect”. For H581K, the “effect of a mutation on the interaction” value was “with no effect”. Then H581A, with “with no effect”.
